The chains are these.
B1: TPR t1 (parent)
chain: GACCAAUCUGCCCUCAGAGCUCGAGAACAUCUUCGGAUGCAGAGGAGGCAGGCUUCGGUGGCGCGAUAGCGCCAACGUCCUCAACCUCCAAUGCAUCCCACCACAUGAUGAUGCCUGAAGAGCCUUGGUUUUUUG

Variants of B1 are the subject of the data set. In words: polymerase ribozyme fitness, log enrichment relative to wild type (log ratio); higher = more active; in vitro selection for triplet polymerase activity. An outline of the steps:
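Libraries of mutants in each subunit of a heterodimeric triplet polymerase ribozyme were generated by PCR and transcribed. In triplicate, each went through one in vitro selection round: annealing with biotinylated primer, partner subunit and triplets; frozen incubation at −7 °C; gel excision of extended constructs; streptavidin-bead capture; RT-PCR. Fitness, taken from Illumina sequencing of input and output libraries, is the logarithm of a genotype's enrichment over wild-type enrichment, averaged across replicates with inverse-variance weights. The logarithm is base 2, and genotypes needed ≥10 input reads and ≥1 read per output to be kept.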
Regarding GACCAAUCUGCCCUCAGAGCUCGAGAACAUCUUCGGAUGCAGAGGAGGCAGGCUUCGGUGGCACGAUAGCGCCAACGUCCUCAACCUCCAAUGCAUCCCACAACAUGAUGAUGCCUGAAGAGCCUUGGUUUUUUG, the “polymerase ribozyme fitness (log ratio)” value is -3.54.

With GACCAAUCUGCCCUCAGAGCUCGAGAACAUCUUCGGAUGCAGAGGAGGCAGGCUUCGGUGGCACGAUAGCGCCAACGUCCUCAACCUCCAAUGCAUCCCACCACAUGAUGAUGCCUGAAGAGUCUUGCUUUUUUG, the “polymerase ribozyme fitness (log ratio)” value was -1.87.

Regarding GACCAAUCUGCCCUCAGAGCUCGAGAACAUCUUCGGAUGCAGAGGAGGCAGGCUUCGGUGGCACGAUAGCGCCAACGUCCUCAACCUCCAAUGCAUCCCACCACAUGAUGAUUCCUGAAGAGCCUUCGUUUUUUG, the “polymerase ribozyme fitness (log ratio)” value is -4.93.

As for GACCAAUCUGCCCUCAGAGCUCGAGAACAUCUUCGGAUGCAGAGGAGGCAGGCUUCGGUGGCACGAUAGCGCCAACGUCCUCAACCUCCAAUGCAUCCCACCACAUGAUGAUGCCUGAUGAGCCUUGGUUUUUUU, the “polymerase ribozyme fitness (log ratio)” value was -1.7.

Regarding GACCAAUCUGCCCUCAGAGCUCGAGAACAUCUUCGGAUGCAGAGGAGGCAGGCUUCGGUGGCACGAUAGCGGCAACGUCCUCAACCUCCAAUGCAUCCCACCAGAUGAUGAUGCCUGAAAAUCCUUGGUUUUUUG, the “polymerase ribozyme fitness (log ratio)” value was -6.38.

For GACCAAUCUGCCCUCAGAGCUCGAGAACAUCUUCGGAUGCAGAGGAGGCAGGCUUCGGUGGUGCGAUAGCGCCAACGUCCUCAACCUCCAAUGCAUCCCACCACAUGAUGAUGCCUGAAGAGCCUUGGAUUUUUG, the “polymerase ribozyme fitness (log ratio)” value was -1.09.

In the case of GACCAAUCUGCCCUCAGAGCUCGAGAACAUCUUCGGAUGCAGAGGAGGCAGGCUUCGGUGGCACGAUAGCGCCAACGUCCUCAACCUCCUAUGCAUCCCACCACAUGAUGAUGCCUGAAGAGCCUUGGUUUUUUG, the “polymerase ribozyme fitness (log ratio)” value was -3.43.

GACCAAUCUGCCCUCAGAGCUCGAGAACAUCUUCGGAUGCAGAGGAGGCAGGCUUCGGUGGCACGAUAGCGCCAACGUCCUCAACCUCCAAUGCAUCCCACCACAUGAUGAUCCCUGAAGAGCCUUGGUUUUAUG: the “polymerase ribozyme fitness (log ratio)” value is -4.26.

On to GACCAAUCUGCCCUCAGAGCUCGAGAACAUCUUCGGAUGCAGAGGAGGCAGGCUUCGGUGGCACGAUAGCGCCUACGUCCUCAACCUCCAAUGCAUCCCACCACAUGAUGAUGCCUGAAGAGCCUUGGUUUUUUG, for which the “polymerase ribozyme fitness (log ratio)” value is -3.72.

Regarding GACCAAUCUGCCCUCAGAGCUCGAGAACAUCUUCGGAUGCAGAGGAGGCAGGCUUCGGUGGCACGAUAGCGCCAACGUCCUCAACCUCCAAUUCAUCCCACCACAUGAUAAUGCCUGAAGAGCCUUGGUUUUUUG, the “polymerase ribozyme fitness (log ratio)” value is -4.5.

For the variant GACCAAUCUGCCCUCAGAGCUCGAGAACAUCUUCGGAUGCAGAGGAGGCAGGCUUCGGUGGCACGAUAGCGCCAACGUCCUAAACCUCCAAUGCAUCCCACCACAUGAUGAUGCCUGAAGAGCCUUGGUUUUUUG, the “polymerase ribozyme fitness (log ratio)” value is -2.53.

With GACCAAUCUGCCCUCAGAGCUCGAGAACAUCUUCGGAUGCAGAGGAGGCAGGCUUCGGUGGCACGAUAGCGCCAACGUCCUCAACCUCCAAUGCAUCCCACCACAUGAUGAUGCCUGAAUAGCCUUGGUUUUUUG, the “polymerase ribozyme fitness (log ratio)” value is -0.702.

As to GACCAAUCUGCCCUCAGAGCUCGAGAACAUCUUCGGAUGCAGAGGAGGCAGGCUUCGGUGGCACGAUAGCGCCAACGCCCUCAACCUCCAGUGCAUCCCACCACAUGAUGAUGCCUGAAGGGCCUUGGUUUUUUG, the “polymerase ribozyme fitness (log ratio)” value was determined as 0.408.

On to GACCAAUCUGCCCUCAGAGCUCGAGAACAUCUUCGGAUGCAGAGGAGGCAGGCUUCGGUGGCACGAUAGCGCCAACGUACUCAACCUCCAAUGCAUCCCACCACAUGAUGAUGCCUGAAGAGCCUUGCUUUUUUG, for which the “polymerase ribozyme fitness (log ratio)” value was -4.78.

In the case of GACCAAUCUGCCCUCAGAGCUCGAGAACAUCUUCGGAUGCAGAGGAGGCAGGCUUCGGUGGCACGAUAGCGCCAACGUCCUCAACCUCCAAUGCAUCCCACCACAUGAUGAUGCUUGACGAGCCUUGGUUUUUUG, the “polymerase ribozyme fitness (log ratio)” value was -5.84.

Regarding GACCAAUCUGCCCUCAGAGCUCGAGAACAUCUUCGGAUGCAGAGGAGGCAGGCUUCGGUGGCAUGAUAGCGCCAACGUCCUCAACCUCCAAUGCAUCCCACCACAUGAUGAUGCCUGAAGAGCCUUGGUUUUUUG, the “polymerase ribozyme fitness (log ratio)” value is -5.38.

In the case of GACCAAUCUGCCCUCAGAGCUCGAGAACAUCUUCGGAUGCAGAGGAGGCAGGCUUCGGUGGCACGAUAGCGCCAACGUCCUCAACCUCCAAUGCAUCCCACCACAUGAUGAUCCCUGAAGAGCCUUGGUUUUUUG, the “polymerase ribozyme fitness (log ratio)” value was -2.53.

For GACCAAUCUGCCCUCAGAGCUCGAGAACAUCUUCGGAUGCAGAGGAGGCAGGCUUCGGUGGUGCGAUAGCGCCAACGUCCUCAACCUCCAAUGCAUCCCACCACAUGAUGAUGCCCGAAGAGCCUUGGUUUUUUG, the “polymerase ribozyme fitness (log ratio)” value was -1.06.

As to GACCAAUCUGCCCUCAGAGCUCGAGAACAUCUUCGGAUGCAGAGGAGGCAGGCUUCGGUGGCACGAUAGCGCCAACGCCCUCAACCUCCAAUGCAUCCCACCACAUGAUGAUGCCUGAAGAGCCUUGGUUUUUUG, the “polymerase ribozyme fitness (log ratio)” value is -0.735.

Consider GACCAAUCUGCCCUCAGAGCUCGAGAACAUCUUCGGAUGCAGAGGAGGCAGGCUUCGGUGGUGCGAUAGCGCCAACGUCCUCAACCUCCAAUGCAUCCCACCACAUGAUGAUGCCUGAAGAGCCUUGGUGUUUUG, for which the “polymerase ribozyme fitness (log ratio)” value is -1.41.

Take GACCAAUCUGCCCUCAGAGCUCGAGAACAUCUUCGGAUGCAGAGGAGGCAGGCUUCGGUGGCACGAUAGCGCCAACGUACUCAACCUCCAAUUCAUCCCACCACAUGAUGAUGCCUGAAGAGCCUUGGUUUUUUG: the “polymerase ribozyme fitness (log ratio)” value is -4.19.

Values taken from the RNAGym collection of RNA variant scans (doi:10.1073/pnas.2313332121).
